For 120 sequences, switch fluorescence ratio results are on record in the supplement of paper PMC10126150.

The data set relates to ATP. Briefly: switch fluorescence ratio, 500 uM ATP over buffer (Cy3 cluster intensity, sum of 5 cycles each) (fold (ratio)); higher = stronger signal-on switching upon ATP binding; sequences stand for … in TCGTCGGCAGCGTCAGATGTGTATAAGAGACAGTTTTTTTTTTTTTTTTTTTTTTTTT…TC. To be noted: aptamer strand: ATP DNA aptamer (quencher-CACCTGGGGGAGTATTGCGGAGGAAGG + anchor), 100 nM annealed; ATP concentration: 500 uM. A digest of the protocol: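 For every switch-domain sequence, the fluorescence ratio is the mean of per-cluster values, each being summed target-cycle Cy3 intensity over summed buffer-cycle Cy3 intensity. Clusters outside 100-1000 RFU were excluded. On a modified Illumina MiSeq flow-cell, the Cy3-labelled switching-strand clusters were annealed to 100 nM quencher-labelled ATP aptamer, imaged in selection buffer and then after 15 min with 500 uM ATP at 22 °C. Five such cycles were run, with NaOH stripping and re-annealing between them.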

± gives the standard deviation of the averaged measurements.
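Note: ATP exposure 15 min at 22 °C before imaging.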

CGGGCGGGGT: the switch fluorescence ratio turned out to be 1.03 ± 0.051.
Then ACATCGGTTG, with 0.976 ± 0.028; and ACTGGGTATT, with 0.963 ± 0.061; and CTATCGATAG, with 0.993 ± 0.035.
Then TAATTTGTTG, with 0.988 ± 0.028; and AGGGGAATG, with 1 ± 0.022.
The figure for CGGGTACGTG is 1.02 ± 0.018; for CCCATCTTTT it is 1 ± 0.0025.
Turning to CTAGAAGGGA, the switch fluorescence ratio worked out at 0.9965 ± 0.0049.
Consider GCTAGAGACG, for which the switch fluorescence ratio worked out at 1.06 ± 0.054.
The figure for TTACAAGGAT is 0.997 ± 0.012; for TTAGGTTCTA it is 1.08 ± 0.12; for TGGGATTGAA it is 0.9806 ± 0.0079.
Then GTTGTAGCTC, with 1 ± 0.023.
The figure for AGAGTTGGGT is 0.984 ± 0.02; for TATGAGGGGA it is 1.02 ± 0.032; for ATATAGTCCT it is 0.9714 ± 0.0023.
For ATGTAATAA, the switch fluorescence ratio came out at 1.022 ± 0.0049.
In the case of AATCGAGGGA, the switch fluorescence ratio came to 1 ± 0.027.
Then CTCCGGGCCT, with 1.42 ± 0.12; and GGGAGAGGGA, with 0.978 ± 0.021; and GAAGGGGGCA, with 0.9882 ± 0.001.
Then CTTATCATAT, with 1.09 ± 0.1; and TGGCAGGAAT, with 0.9766 ± 0.0014.
Consider TAACCTGCCC, for which the switch fluorescence ratio is 2.26 ± 0.12.
As for TTTCCGTTTT, the switch fluorescence ratio came out at 1.01 ± 0.038.
Then GGGATTAGGG, with 1.02 ± 0.043; and CGAGAGGGGT, with 1.02 ± 0.044.
As for TTCGTACGTA, the switch fluorescence ratio stood at 1 ± 0.06.
The figure for TAGTAAGAGG is 1 ± 0.013; for GCGTTAAAAG it is 1.03 ± 0.02.
The figure for ATGGTAGG is 0.9749 ± 0.0017; for TAAAAGGACG it is 1.09 ± 0.024.
The figure for TAGGAAGGTA is 1.01 ± 0.018; for TATCAGGGGA it is 1 ± 0.075; for ATAGTCGGGC it is 0.99 ± 0.022.
With TCTCCATTGC, the switch fluorescence ratio came to 1.67 ± 0.035.
Then GGGGCAGCGT, with 0.999 ± 0.043; and GCTAACTTTT, with 1.03 ± 0.021.
Regarding TTTTGGTGGT, the switch fluorescence ratio is 1.01 ± 0.024.
For GGGGTATAGT, the switch fluorescence ratio stood at 0.98 ± 0.021.
With GAGGTGAGGC, the switch fluorescence ratio came to 1.03 ± 0.019.
Regarding TTGAAATGTG, the switch fluorescence ratio came out at 1.01 ± 0.017.
Then CGCGTGTGTG, with 1.02 ± 0.038; and CAACCGTTTC, with 1.27 ± 0.028; and TTTTGCCATA, with 1.02 ± 0.042.
Turning to GTTAATGGGG, the switch fluorescence ratio turned out to be 0.986 ± 0.054.
Regarding AAAATTGGTT, the switch fluorescence ratio came out at 1.009 ± 0.007.
The figure for AATCGGGTTG is 1 ± 0.019.
ATATGGTAAA: the switch fluorescence ratio came out at 0.958 ± 0.015.
The figure for GTATTTTTGC is 1.02 ± 0.024; for GGTTACCTTT it is 0.996 ± 0.042.
The figure for AGCCTAGGAT is 1.04 ± 0.0021; for TCCACATTCC it is 1.57 ± 0.35; for GGGGTAGTGC it is 0.998 ± 0.015.
Then AAGGATCTAC, with 1.01 ± 0.027.
For TCGAATTCGC, the switch fluorescence ratio was 1.0071 ± 8.5e-05.
The figure for GCAATTGGTC is 1.25 ± 0.06; for TGGTTGCAGC it is 1 ± 0.055; for TTCGGTATGC it is 0.98 ± 0.047.
Then CGGCTTATAT, with 1.06 ± 0.041.
Turning to TGGCAGGGAT, the switch fluorescence ratio came out at 1.02 ± 0.067.
Consider AAATAAACGA, for which the switch fluorescence ratio worked out at 0.98 ± 0.0072.
Then GGGAAAATTC, with 1.06 ± 0.089; and GATATCCAGC, with 1.02 ± 0.023; and CTGTATGAGT, with 0.9879 ± 0.0037.
Then AGAATGCACG, with 0.957 ± 0.035; and ACTAATTATT, with 1.03 ± 0.021.
The figure for CGTTCGCGCG is 1.02 ± 0.023.
As to TAAGCAATGT, the switch fluorescence ratio came to 2.69 ± 1.1.
Then TCAGAAGGGG, with 0.995 ± 0.0085; and TGGGGCTTGA, with 0.9684 ± 0.005.
Then CAGGGGGGTG, with 1.01 ± 0.051; and CTGGGGGTCG, with 1 ± 0.025; and GAAGTACAGC, with 1.26 ± 0.031.
The figure for CGAGAGTGCG is 0.962 ± 0.023; for AGGAGCGGTG it is 0.985 ± 0.047.
With CGTCCCCGAG, the switch fluorescence ratio is 1.054 ± 0.0087.
Then GATGGAGTTA, with 1.01 ± 0.047; and CGGTTAGTTT, with 0.97 ± 0.034; and TACTATTATC, with 1.0537 ± 0.00026.
The figure for GTCGAAAGGT is 0.984 ± 0.019; for CAGGGAGCTG it is 1.01 ± 0.027; for GCTAAAAAAT it is 0.98 ± 0.013.
Then TGAGGGGCTA, with 1.01 ± 0.049; and TTTCGGGATG, with 1.01 ± 0.066.
GAAGGAGCGG: the switch fluorescence ratio stood at 0.982 ± 0.023.
The figure for ATCGGTTTCT is 1.002 ± 0.0083; for AACTGTTGG it is 0.9895 ± 0.006.
Turning to GCTTGTGGAG, the switch fluorescence ratio was found to be 1.02 ± 0.013.
Turning to ACAAGTATTA, the switch fluorescence ratio was 1.017 ± 0.0051.
Then TTTCTTAATT, with 1.4 ± 0.59; and GCGCTGCTGT, with 1.04 ± 0.038.
The figure for AGGATTAAAT is 0.987 ± 0.026; for TTTTGGGGCT it is 1.01 ± 0.03.
The figure for AGGGGGCTAT is 1.02 ± 0.015; for TTTCAAAAT it is 1.035 ± 0.0037; for CCAGCGTGGT it is 1.1 ± 0.019.
Turning to AGGGCGCTG, the switch fluorescence ratio was found to be 0.9885 ± 0.0045.
Then TGATAGGGTT, with 0.985 ± 0.014; and TGGGAAATGG, with 1 ± 0.024.
As for TATCATCTTT, the switch fluorescence ratio was 1.01 ± 0.054.
Turning to TGTTGGTCTT, the switch fluorescence ratio turned out to be 0.952 ± 0.032.
The figure for AGAAAAATGG is 0.998 ± 0.02; for TATGTGGCGG it is 0.974 ± 0.022; for GTGCTAGGTT it is 0.984 ± 0.023.
The figure for ACTATTGGGG is 0.989 ± 0.011; for CCCAGGCCCG it is 1.058 ± 0.0088.
With TTTAAACGCT, the switch fluorescence ratio was 0.997 ± 0.036.
Then CCATACGTTT, with 1.02 ± 0.046; and TAAGAAAGGT, with 1 ± 0.0053.
Then CCTCGAGGGT, with 1.09 ± 0.07.
Regarding GTCACGGGGG, the switch fluorescence ratio turned out to be 1.026 ± 0.0027.
Then ATGGCTATTT, with 0.9852 ± 0.0086; and GACGGGTGTC, with 0.967 ± 0.012.
The figure for TCGCGTGGTA is 0.989 ± 0.038; for TGATGGGTAG it is 0.998 ± 0.028.
CGCTTTTTTT: the switch fluorescence ratio worked out at 1.01 ± 0.025.
The figure for AATGCCTTTG is 1.02 ± 0.035.
The figure for GGAATATAAC is 1 ± 0.045.
